These results are taken from the MegaScale stability set (Tsuboyama et al. 2023).

To fix the notation:
B1: EHEE_rd4_0726 (parent)
chain: DIEITTNGEEDAKRVIKELQKRNLEYHIEVHGNQWVIKVR
B2: EHEE_rd2_0191 (parent)
chain: TTEYTFTDDEEARRAIEELKKRGLTFRYEKHGTTWRVRVD

In one data set the parent is B1. Put plainly: folding stability dG (cDNA display proteolysis); higher = more stable. To be noted: PBS, room temperature.
Take E3W: the “folding stability dG” value is 3.35 kcal/mol.

For the variant E3G, the “folding stability dG” value is 1.25 kcal/mol.

Consider D11K, for which the “folding stability dG” value turned out to be 1.78 kcal/mol.

On to H27D, for which the “folding stability dG” value came out at 2.48 kcal/mol.

Consider K13Y, for which the “folding stability dG” value amounted to 2.73 kcal/mol.

As for E18H, the “folding stability dG” value was determined as 2.02 kcal/mol.

T6W: the “folding stability dG” value is 1.04 kcal/mol.

On to V36Q, for which the “folding stability dG” value stood at 0.978 kcal/mol.

For H31Y, the “folding stability dG” value turned out to be 2.26 kcal/mol.

In the case of H31K, the “folding stability dG” value was 2.5 kcal/mol.

On to W35M, for which the “folding stability dG” value is 1.44 kcal/mol.

W35R: the “folding stability dG” value was 0.717 kcal/mol.

With K17S, the “folding stability dG” value turned out to be 2.31 kcal/mol.

Take G32H: the “folding stability dG” value was 1.39 kcal/mol.

N33M: the “folding stability dG” value came to 1.97 kcal/mol.

Take V39M: the “folding stability dG” value stood at 1.44 kcal/mol.

As for V39H, the “folding stability dG” value turned out to be 0.549 kcal/mol.

Regarding R14W, the “folding stability dG” value is 2.85 kcal/mol.

Consider R40S, for which the “folding stability dG” value worked out at 2.18 kcal/mol.

Take I2Q: the “folding stability dG” value was found to be 1.69 kcal/mol.

For G8Q, the “folding stability dG” value was found to be 1.84 kcal/mol.

On to T5F, for which the “folding stability dG” value worked out at 2.77 kcal/mol.

Regarding D1N, the “folding stability dG” value turned out to be 2.37 kcal/mol.

D1H: the “folding stability dG” value stood at 2.48 kcal/mol.

On to D1I, for which the “folding stability dG” value was found to be 2.87 kcal/mol.

Turning to Q20G, the “folding stability dG” value amounted to 1.48 kcal/mol.

Consider Q20E, for which the “folding stability dG” value was 2.68 kcal/mol.

The variants in a further data set derive from B2. The data set is described as above. To be noted: PBS, room temperature.
On to R36I, for which the “folding stability dG” value amounted to 3.33 kcal/mol.

As for R36M, the “folding stability dG” value was determined as 2.08 kcal/mol.

Consider R36A, for which the “folding stability dG” value amounted to 1.19 kcal/mol.

For the variant R36Q, the “folding stability dG” value is 1.54 kcal/mol.

Turning to R36W, the “folding stability dG” value was 2.7 kcal/mol.

For the variant R36N, the “folding stability dG” value is 1.43 kcal/mol.

Regarding R36K, the “folding stability dG” value amounted to 2.35 kcal/mol.

As to R36E, the “folding stability dG” value came to 1.34 kcal/mol.

Regarding R36C, the “folding stability dG” value was 2.39 kcal/mol.

For R36L, the “folding stability dG” value was 2.71 kcal/mol.

On to R36T, for which the “folding stability dG” value turned out to be 2.57 kcal/mol.

Turning to R36S, the “folding stability dG” value is 1.67 kcal/mol.

R36F: the “folding stability dG” value was found to be 3.02 kcal/mol.

As for R36G, the “folding stability dG” value was -0.707 kcal/mol.

For the variant R36V, the “folding stability dG” value was determined as 3.08 kcal/mol.

Consider R36Y, for which the “folding stability dG” value stood at 3.28 kcal/mol.

For R36H, the “folding stability dG” value amounted to 2.44 kcal/mol.

As for R36D, the “folding stability dG” value is 0.362 kcal/mol.

Take R38W: the “folding stability dG” value was 4.04 kcal/mol.

For R38M, the “folding stability dG” value came to 2.81 kcal/mol.

As to R38T, the “folding stability dG” value is 2.95 kcal/mol.

Regarding R38E, the “folding stability dG” value was found to be 2.35 kcal/mol.

On to R38A, for which the “folding stability dG” value stood at 1.89 kcal/mol.

R38Y: the “folding stability dG” value was 3.62 kcal/mol.

For R38H, the “folding stability dG” value was found to be 2.28 kcal/mol.

Turning to R38I, the “folding stability dG” value is 3.6 kcal/mol.

As to R38D, the “folding stability dG” value turned out to be 1.11 kcal/mol.

Take R38S: the “folding stability dG” value amounted to 2.49 kcal/mol.

Regarding R38G, the “folding stability dG” value is 0.594 kcal/mol.

As to R38N, the “folding stability dG” value is 1.71 kcal/mol.

For R38L, the “folding stability dG” value came to 2.95 kcal/mol.

For R38K, the “folding stability dG” value was 2.06 kcal/mol.

For R38F, the “folding stability dG” value was 3.61 kcal/mol.

With R38V, the “folding stability dG” value amounted to 3.23 kcal/mol.

As for R38Q, the “folding stability dG” value was found to be 2.47 kcal/mol.

Take T34W: the “folding stability dG” value was determined as 1.75 kcal/mol.

Turning to T34C, the “folding stability dG” value was found to be 2.51 kcal/mol.

As for T34M, the “folding stability dG” value worked out at 2.08 kcal/mol.

In the case of T34Y, the “folding stability dG” value is 2.05 kcal/mol.

As for T34I, the “folding stability dG” value turned out to be 2.48 kcal/mol.

Take T34D: the “folding stability dG” value amounted to 1.03 kcal/mol.

T34G: the “folding stability dG” value stood at 1.56 kcal/mol.

With T34F, the “folding stability dG” value worked out at 2.15 kcal/mol.

With T34V, the “folding stability dG” value was 2.42 kcal/mol.

Turning to T34S, the “folding stability dG” value was 1.53 kcal/mol.

Regarding T34H, the “folding stability dG” value was 1.74 kcal/mol.

On to T34E, for which the “folding stability dG” value turned out to be 2.07 kcal/mol.

With T34Q, the “folding stability dG” value was 1.78 kcal/mol.

In the case of T34R, the “folding stability dG” value was found to be 1.54 kcal/mol.

Turning to T34K, the “folding stability dG” value amounted to 1.48 kcal/mol.

Regarding T34L, the “folding stability dG” value worked out at 2.33 kcal/mol.

Take T34N: the “folding stability dG” value amounted to 1.48 kcal/mol.

On to T34A, for which the “folding stability dG” value was found to be 1.48 kcal/mol.

In the case of T33A, the “folding stability dG” value turned out to be 1.93 kcal/mol.

As to T33S, the “folding stability dG” value was determined as 2.19 kcal/mol.

With T33I, the “folding stability dG” value is 1.84 kcal/mol.

As for T33L, the “folding stability dG” value was found to be 1.91 kcal/mol.

For the variant T33V, the “folding stability dG” value was 1.71 kcal/mol.

With T33Y, the “folding stability dG” value was 1.7 kcal/mol.

For the variant T33N, the “folding stability dG” value came to 2.55 kcal/mol.

In the case of T33H, the “folding stability dG” value was found to be 2.01 kcal/mol.

Consider T33G, for which the “folding stability dG” value is 2.46 kcal/mol.

As for T33P, the “folding stability dG” value turned out to be 1.79 kcal/mol.

As to T33M, the “folding stability dG” value is 1.9 kcal/mol.

Regarding T33D, the “folding stability dG” value was determined as 2.54 kcal/mol.

Turning to T33K, the “folding stability dG” value stood at 2.01 kcal/mol.

In the case of T33E, the “folding stability dG” value worked out at 2.14 kcal/mol.

T33F: the “folding stability dG” value was 1.9 kcal/mol.

Take T33W: the “folding stability dG” value amounted to 1.13 kcal/mol.

Turning to T33Q, the “folding stability dG” value came to 2.03 kcal/mol.

For T33R, the “folding stability dG” value turned out to be 1.8 kcal/mol.

D40H: the “folding stability dG” value is 2.19 kcal/mol.

Consider D40C, for which the “folding stability dG” value was 3.04 kcal/mol.

Turning to D40P, the “folding stability dG” value came to 1.86 kcal/mol.

Regarding D40S, the “folding stability dG” value was 2.17 kcal/mol.

For the variant D40R, the “folding stability dG” value is 1.95 kcal/mol.

Regarding D40M, the “folding stability dG” value is 2.68 kcal/mol.

Consider D40F, for which the “folding stability dG” value came to 3.35 kcal/mol.

D40N: the “folding stability dG” value was 2.04 kcal/mol.

For D40I, the “folding stability dG” value was 2.83 kcal/mol.

On to D40L, for which the “folding stability dG” value came out at 2.78 kcal/mol.

Turning to D40K, the “folding stability dG” value was determined as 1.9 kcal/mol.

With D40E, the “folding stability dG” value turned out to be 2.31 kcal/mol.

With D40T, the “folding stability dG” value worked out at 2.38 kcal/mol.

D40W: the “folding stability dG” value worked out at 3.19 kcal/mol.

For D40Y, the “folding stability dG” value is 3.29 kcal/mol.

For the variant D40G, the “folding stability dG” value came to 2.1 kcal/mol.

With D40Q, the “folding stability dG” value stood at 2.19 kcal/mol.

In the case of D40A, the “folding stability dG” value was determined as 2.04 kcal/mol.

On to D40V, for which the “folding stability dG” value was 2.54 kcal/mol.

As to H31Y, the “folding stability dG” value was determined as 2.04 kcal/mol.

Consider W35R, for which the “folding stability dG” value is -0.576 kcal/mol.

On to W35H, for which the “folding stability dG” value was found to be 1.59 kcal/mol.

As to W35L, the “folding stability dG” value turned out to be 0.943 kcal/mol.

Regarding W35N, the “folding stability dG” value is -0.839 kcal/mol.

Take W35I: the “folding stability dG” value worked out at 2.15 kcal/mol.

Turning to W35C, the “folding stability dG” value was found to be 1.77 kcal/mol.

W35F: the “folding stability dG” value amounted to 0.889 kcal/mol.

Take W35T: the “folding stability dG” value was 1.49 kcal/mol.

For W35A, the “folding stability dG” value is -0.575 kcal/mol.

On to W35Y, for which the “folding stability dG” value turned out to be 1.21 kcal/mol.

As for W35V, the “folding stability dG” value turned out to be 1.44 kcal/mol.

Regarding W35S, the “folding stability dG” value was 0.309 kcal/mol.

On to W35M, for which the “folding stability dG” value was found to be 0.84 kcal/mol.

Regarding V37L, the “folding stability dG” value was determined as 1.76 kcal/mol.

With V37C, the “folding stability dG” value was determined as 0.419 kcal/mol.

As to V37M, the “folding stability dG” value is 0.361 kcal/mol.

As for V37I, the “folding stability dG” value is 2.67 kcal/mol.

Turning to V37P, the “folding stability dG” value was -0.51 kcal/mol.

On to V37F, for which the “folding stability dG” value is 1.88 kcal/mol.

Turning to G32W, the “folding stability dG” value is -0.3 kcal/mol.

For G32D, the “folding stability dG” value was determined as 1.34 kcal/mol.

Take G32L: the “folding stability dG” value was 0.796 kcal/mol.

As to G32S, the “folding stability dG” value was 0.389 kcal/mol.

G32K: the “folding stability dG” value amounted to 0.641 kcal/mol.

Regarding G32Q, the “folding stability dG” value came out at 0.889 kcal/mol.

As to G32Y, the “folding stability dG” value is 0.194 kcal/mol.

In the case of G32N, the “folding stability dG” value turned out to be 1.1 kcal/mol.

As for G32T, the “folding stability dG” value is -0.068 kcal/mol.

In the case of G32E, the “folding stability dG” value stood at 1.35 kcal/mol.

With G32M, the “folding stability dG” value turned out to be 0.592 kcal/mol.

Turning to G32H, the “folding stability dG” value came to 0.696 kcal/mol.

On to G32F, for which the “folding stability dG” value worked out at 0.367 kcal/mol.

Turning to G32R, the “folding stability dG” value turned out to be 0.119 kcal/mol.

For the variant G32I, the “folding stability dG” value is -0.154 kcal/mol.

For G32V, the “folding stability dG” value is -0.186 kcal/mol.

As to G32A, the “folding stability dG” value amounted to 0.777 kcal/mol.

For V39W, the “folding stability dG” value was 0.937 kcal/mol.

In the case of V39M, the “folding stability dG” value was found to be 1.02 kcal/mol.

For V39Q, the “folding stability dG” value is -0.645 kcal/mol.

On to V39T, for which the “folding stability dG” value stood at 0.562 kcal/mol.

For the variant V39S, the “folding stability dG” value was -0.316 kcal/mol.

With V39I, the “folding stability dG” value worked out at 2.02 kcal/mol.

Regarding V39E, the “folding stability dG” value is -0.709 kcal/mol.

For V39P, the “folding stability dG” value was -0.946 kcal/mol.

Turning to V39H, the “folding stability dG” value is -0.386 kcal/mol.

Turning to V39A, the “folding stability dG” value amounted to 0.227 kcal/mol.

Consider V39F, for which the “folding stability dG” value stood at 1.24 kcal/mol.

For V39L, the “folding stability dG” value was determined as 1.6 kcal/mol.

For the variant V39Y, the “folding stability dG” value amounted to 0.601 kcal/mol.
